# Measurements: publication doi:10.1101/2021.01.06.425657, “The SCF^Met30 ubiquitin ligase senses cellular redox state to regulate the transcription of sulfur metabolism gene” (bioRxiv, 2021)
# Substitutions are numbered along the chain they refer to. Names may count otherwise.
# T1: His-SUMO-Met4-Strep-tagII-HA (S. cerevisiae, UniProt P32389 1-672)
# T1 construct: Met4, transcription factor of the MET regulon, Saccharomyces cerevisiae; MET4 ORF cloned into the pET His6 Sumo vector; fractions with pure, full-length Met4 were pooled; No cleavage of His-SUMO is described; also called recombinant Met4; bacterially purified Met4; source: E. coli BL21, purified (Ni-NTA, Strep-Tactin Sepharose); not shown: HA, C-terminal, kept
# T1 sequence (looked up): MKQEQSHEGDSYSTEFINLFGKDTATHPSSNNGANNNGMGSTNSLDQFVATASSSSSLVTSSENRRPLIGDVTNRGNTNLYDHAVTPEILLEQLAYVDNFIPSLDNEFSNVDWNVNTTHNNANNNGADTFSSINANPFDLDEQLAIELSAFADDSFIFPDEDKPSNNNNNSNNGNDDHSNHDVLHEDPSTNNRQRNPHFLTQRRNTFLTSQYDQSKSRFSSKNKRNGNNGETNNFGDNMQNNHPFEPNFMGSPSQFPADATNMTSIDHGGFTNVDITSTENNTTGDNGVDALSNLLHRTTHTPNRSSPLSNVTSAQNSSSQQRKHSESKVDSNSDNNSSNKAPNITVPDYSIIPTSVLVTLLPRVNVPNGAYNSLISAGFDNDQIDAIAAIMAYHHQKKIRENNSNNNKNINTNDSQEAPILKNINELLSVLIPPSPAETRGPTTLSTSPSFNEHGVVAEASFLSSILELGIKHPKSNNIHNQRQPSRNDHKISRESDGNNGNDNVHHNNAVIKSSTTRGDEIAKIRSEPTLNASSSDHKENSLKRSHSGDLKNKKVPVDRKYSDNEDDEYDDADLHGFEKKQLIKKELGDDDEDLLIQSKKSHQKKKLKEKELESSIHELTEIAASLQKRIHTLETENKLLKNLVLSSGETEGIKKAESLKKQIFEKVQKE
# B1: Met30-Flag (natural protein, S. cerevisiae, UniProt P39014 1-640, looked up)
# chain: MRRERQRMMSFEDKDKDDLDNSNSNNSSEMTDTAMMPPLKRLLITGSSDDLAQGSSGKKKMTMATRSPSSSPDLATNDSGTRVQPLPEYNFTKFCYRHNPDIQFSPTHTACYKQDLKRTQEINANIAKLPLQEQSDIHHIISKYSNSNDKIRKLILDGILSTSCFPQLSYISSLVTHMIKIDFISILPQELSLKILSYLDCQSLCNATRVCRKWQKLADDDRVWYHMCEQHIDRKCPNCGWGLPLLHMKRARIQQNSTGSSSNADIQTQTTRPWKVIYRERFKVESNWRKGHCRIQEFKGHMDGVLTLQFNYRLLFTGSYDSTIGIWDLFTGKLIRRLSGHSDGVKTLYFDDRKLITGSLDKTIRVWNYITGECISTYRGHSDSVLSVDSYQKVIVSGSADKTVKVWHVESRTCYTLRGHTEWVNCVKLHPKSFSCFSCSDDTTIRMWDIRTNSCLKVFRGHVGQVQKIIPLTIKDVENLATDNTSDGSSPQDDPTMTDGADESDTPSNEQETVLDENIPYPTHLLSCGLDNTIKLWDVKTGKCIRTQFGHVEGVWDIAADNFRIISGSHDGSIKVWDLQSGKCMHTFNGRRLQRETQHTQTQSLGDKVAPIACVCIGDSECFSGDEFGCVKMYKFDLND
# notes: Met30, F-box protein of the SCF^Met30 E3 ubiquitin ligase, Saccharomyces cerevisiae (CEN.PK background); endogenous locus tagged at the C-terminus; 23 cysteines; Isolated from yeast as a Met30-Flag complex, so other SCF components may be on the beads; Cysteines are reduced or oxidised depending on the IP condition (+DTT, -DTT, +diamide); also called SCF^Met30-Flag; Flag-tagged Met30; source: S. …
# B2: Met30 C414S (Flag-tagged) (natural protein, S. cerevisiae, UniProt P39014 1-640, looked up)
# chain: B1 chain with C414S
# notes: Met30, F-box protein, Saccharomyces cerevisiae (CEN.PK background), with the point mutation C414S; whole gene locus with tag transformed into yeast; source: S. cerevisiae CEN.PK mutant strain grown in rich media, immunopurified on anti-FLAG M2 magnetic beads; not shown: Flag, C-terminal, kept
# B3: Met30 C614/616/622/630S (Flag-tagged) (natural protein, S. cerevisiae, UniProt P39014 1-640, looked up)
# chain: B1 chain with C614S, C616S, C622S, C630S
# notes: Met30, F-box protein, Saccharomyces cerevisiae (CEN.PK background), with four cysteine to serine mutations in the WD-40 repeat region; whole gene locus with tag transformed into yeast; source: S. cerevisiae CEN.PK mutant strain grown in rich media, immunopurified on anti-FLAG M2 magnetic beads; not shown: Flag, C-terminal, kept
# Target: T1, His-SUMO-Met4-Strep-tagII-HA
# Assay: pull-down; Met30-Flag complex isolated on anti-FLAG M2 protein G dynabeads from lysate of rich or -sulfur cells with 1 mM DTT, 1 mM diamide or nothing added; beads washed, then incubated with 1 ug purified recombinant Met4 in 1 mL IP buffer (50 mM Tris pH 7.5, 150 mM NaCl, 1% NP-40) with or without 1 mM DTT, 2 h, 4°C; Western blots for Met4 and Met30; mutants from cells grown in rich media
# Details: both partners purified
row,binding result,Binder
1,binds,B1
2,binds,B2
3,binds,B3
